Source: doi:10.1101/2022.06.02.494578

How the values were obtained:
[1] = target: taxol-stabilised microtubules polymerised from pig brain tubulin (pig) (UniProt P02550); assay: co-sedimentation
[2] = target: taxol-stabilised microtubules polymerised from pig brain tubulin (pig) (UniProt P02550); assay: TIRF imaging of labeled Lis1 on microtubules

taxol-stabilised microtubules polymerised from pig brain tubulin (pig), sequence (P02550 whole entry): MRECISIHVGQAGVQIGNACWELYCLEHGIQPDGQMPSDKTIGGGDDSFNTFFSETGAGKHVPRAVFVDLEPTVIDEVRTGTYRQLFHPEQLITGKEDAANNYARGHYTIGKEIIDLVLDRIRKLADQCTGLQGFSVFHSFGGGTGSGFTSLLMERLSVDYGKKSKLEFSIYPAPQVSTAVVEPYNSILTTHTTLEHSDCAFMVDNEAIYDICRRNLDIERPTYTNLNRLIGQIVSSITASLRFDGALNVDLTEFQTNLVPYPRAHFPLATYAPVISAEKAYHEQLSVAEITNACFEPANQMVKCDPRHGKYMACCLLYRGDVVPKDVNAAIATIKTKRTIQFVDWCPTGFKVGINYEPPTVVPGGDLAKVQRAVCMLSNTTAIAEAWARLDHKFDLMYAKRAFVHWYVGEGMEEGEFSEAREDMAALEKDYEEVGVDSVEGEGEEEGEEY
Lis1 (Pac1, the Lis1 homolog in S. cerevisiae), wild-type dimer, sequence (P39946 whole entry): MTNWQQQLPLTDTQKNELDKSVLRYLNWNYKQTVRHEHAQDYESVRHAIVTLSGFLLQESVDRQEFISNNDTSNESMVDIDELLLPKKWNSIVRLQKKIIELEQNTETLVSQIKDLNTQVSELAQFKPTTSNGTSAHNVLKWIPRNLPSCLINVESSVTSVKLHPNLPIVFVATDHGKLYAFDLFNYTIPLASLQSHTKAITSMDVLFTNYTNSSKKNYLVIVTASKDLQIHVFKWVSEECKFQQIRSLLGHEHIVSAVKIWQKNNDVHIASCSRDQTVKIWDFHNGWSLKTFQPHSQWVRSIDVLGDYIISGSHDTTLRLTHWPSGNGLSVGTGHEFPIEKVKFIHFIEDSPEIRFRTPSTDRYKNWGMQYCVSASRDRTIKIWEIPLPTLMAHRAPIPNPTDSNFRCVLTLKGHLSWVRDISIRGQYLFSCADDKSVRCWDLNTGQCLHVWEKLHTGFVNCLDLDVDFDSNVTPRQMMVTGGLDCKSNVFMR
monomeric Lis1 lacking its amino-terminal dimerization domain (domain or fragment), sequence (A6ZPA6 whole entry, the tested form may be a part): as the sequence (P39946 whole entry) above

Row | Substance | Kd [1] [nM] | percent of Lis1 intensity on microtubules lost after washing [2] [%] | residence time on the microtubule [2] [s] | time to dissociation from the microtubule [2] [s]
1 | Lis1 (Pac1, the Lis1 homolog in S. cerevisiae), wild-type dimer (from UniProt P39946 1-494) (natural protein) | 88 | 92 | 19.3 | –
2 | monomeric Lis1 lacking its amino-terminal dimerization domain (domain or fragment) | – | – | – | 1 to 2
